Laboratory results as given in the supplement of paper PMC10724198.
± gives the standard deviation of the averaged measurements.

Tested on: Saccharomyces cerevisiae
Experiment: protein stability index of tFT-peptide fusion (C-terminal peptide) (PSI (0-1 scale)); higher = more stable (slower turnover)
Details: genetic background: wild type; temperature: 30 C
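Further: PSI is a weighted mean of sequencing reads over stability bins, variants kept only with over 10 reads, mCherry proximal and sfGFP distal, peptide attached via GGGS linker.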

Sequence | protein stability index
AFFRPGISRPYG | 0.71 ± 0.0072
QAGKPLYVEMVS | 0.609 ± 0.021
LRPCAGAVRPSA | 0.724 ± 0.0099
PRPPPPSVARVP | 0.64711 ± 0.0003
KLKKNKTREMET | 0.789 ± 0.018
GRAGQPCEGALP | 0.652 ± 0.021
ALLPPPRPLPHP | 0.719 ± 0.014
ALPCLSPVLPFL | 0.729 ± 0.014
NDFFVVFSVGEC | 0.613 ± 0.041
YLQESLVEMWIV | 0.65 ± 0.056
KRGRGPQFCDLY | 0.693 ± 0.045
RFVTLLSDFFLL | 0.681 ± 0.063
GGWGGGGGAWSG | 0.71 ± 0.041
IPSRGVQIPSWV | 0.63 ± 0.03
GGSLPAHPRNPL | 0.701 ± 0.027
PPPPLPPIRPYP | 0.719 ± 0.016
NFTSYDIYLSCS | 0.671 ± 0.016
PPPLPLSTPPPL | 0.671 ± 0.014
PSSSDHDTRQKK | 0.708 ± 0.058
IKRKKKKKKKRD | 0.6558 ± 0.0015
PPSLLFPLPLAS | 0.649 ± 0.11
RDLVEQTLHIEY | 0.667 ± 0.013
LTVLPAVNCFPV | 0.681 ± 0.021
GEAREEEKKGRW | 0.631 ± 0.027
CGGSWMRGLRDL | 0.72 ± 0.043
RVMGDAAGCGGV | 0.707 ± 0.062

Sequence | protein stability index
LPPRPPPPPPPA | 0.62606 ± 2.4e-05
KIEHEGIKKGGT | 0.807 ± 0.14
LLVLHVFPLASH | 0.553 ± 0.035
HLPGFAVVFPFP | 0.717 ± 0.032
CLRRTSLEDRRR | 0.704 ± 0.037
PAFPSPFPTSSL | 0.647 ± 0.099
NPWYCVWYGAIT | 0.626 ± 0.068
VCCSQWPLGFSV | 0.733 ± 0.068
PQDRGICQIIES | 0.632 ± 0.017
SAPLASRLCLFA | 0.644 ± 0.0065
YCHLNLHGCKGC | 0.636 ± 0.023
GVFVVEWSGGEG | 0.586 ± 0.064
DFSNDCLRVLGD | 0.673 ± 0.021
GHLGLFEEETGG | 0.711 ± 0.053
KTCGVGLDRMIG | 0.714 ± 0.0099
SLGVVSHGASRP | 0.693 ± 0.027
GSQLFESVVVRV | 0.679 ± 0.061
RSHAHTRNGSSA | 0.675 ± 0.022
DTDDARGVWGSV | 0.7151 ± 0.0058
LFSGPYRYKAYM | 0.7273 ± 0.0061
FFVLGRGVCLGA | 0.649 ± 0.066
SPPLFCSPPISP | 0.719 ± 0.043
GGGGEVRAWGLR | 0.71 ± 0.032
PPPAPPTFPLRS | 0.684 ± 0.087
GMGRGRGNANEG | 0.622 ± 0.045
GAVAAVPRGGIL | 0.715 ± 0.018

Sequence | protein stability index
HAPPPPDASPPL | 0.677 ± 0.051
EKYGKKIRRKNR | 0.766 ± 0.11
SLRSSRSRIKKG | 0.624 ± 0.086
HPNKPTYLPSPY | 0.768 ± 0.1
PPSLPPPPPVHP | 0.648 ± 0.034
AVGLGARHRVAW | 0.688 ± 0.016
LYLLPLCRPFPY | 0.692 ± 0.013
PHVGSGDGVMKA | 0.598 ± 0.038
TPSLLSPPLSLA | 0.7036 ± 0.0027
LVMQSVQDDPVF | 0.692 ± 0.0081
RPLVYIKHLALL | 0.44 ± 0.17
SFGLSAGGDDRW | 0.74 ± 0.016
DETRQTYRNRKG | 0.728 ± 0.12
RIKQKEEKRNRY | 0.779 ± 0.01
VAVVSATVGASG | 0.68 ± 0.026
RRWATGGVIGGR | 0.677 ± 0.0074
VSPSPLDHPFHV | 0.684 ± 0.021
SPPPLCCPPLAP | 0.728 ± 0.023
RPAAPGSKGDDN | 0.7 ± 0.043
RNKRPDQRERKQ | 0.692 ± 0.17
DLSVSDGCVAFG | 0.64 ± 0.048
VFIVARGLSLIV | 0.536 ± 0.014
PFIPLSMLSPLV | 0.68 ± 0.036
GIQSGGGGGKGG | 0.668 ± 0.015
QPPLPPPLPGSP | 0.741 ± 0.085
WTLSDTRHVLPV | 0.6683 ± 0.00084

Sequence | protein stability index
FISPSPLPPYSP | 0.665 ± 0.059
LPVFVIGEFLLV | 0.49 ± 0.037
SPSLSPSPPSPS | 0.6699 ± 0.0039
TIVFLLPSPRSY | 0.657 ± 0.0094
PPPLPFPPSPPL | 0.681 ± 0.063
GLEIGMSQVSMG | 0.645 ± 0.036
HVLHKPYRPGRP | 0.601 ± 0.0069
KQTICNTGPQWV | 0.6267 ± 0.0022
SPPPPPALPEYQ | 0.6877 ± 0.0012
NFIKCASDIRID | 0.67 ± 0.027
KSKIKKKKQTKR | 0.652 ± 0.051
PPPHPRPSPPSP | 0.702 ± 0.048
REKARNEKRRKT | 0.651 ± 0.0075
VGVGRRGGVGEG | 0.654 ± 0.029
HSNPPPRRHPTI | 0.756 ± 0.068
GGRAWRWVARVG | 0.673 ± 0.045
PLPPPLLPPSSS | 0.7302 ± 0.0013
HDETKAYLAPGQ | 0.697 ± 0.037
LYDSNLILSIPC | 0.617 ± 0.14
KPQAGPSRHPPS | 0.759 ± 0.064
ACLWRLSWVLGK | 0.641 ± 0.037
PSSSFFFLSSYL | 0.706 ± 0.043
DLCSPWGVDGVK | 0.696 ± 0.00079
VPFQEGHVKRFL | 0.665 ± 0.019
WWSASGGQDVLK | 0.67 ± 0.061
GSPCPIVLICGL | 0.504 ± 0.034

Sequence | protein stability index
ALLTWIFTCIHI | 0.571 ± 0.039
RVLLLTGAFELV | 0.585 ± 0.028
FMFELSPVDEWA | 0.791 ± 0.043
RWFILCRSLPTG | 0.613 ± 0.071
RHLFGTGIMPER | 0.683 ± 0.12
IHRLPPSLFPLL | 0.776 ± 0.12
QPRLRPPLPSPP | 0.638 ± 0.069
VWGRLGGGVGRA | 0.719 ± 0.069
GLAFVGWGPRFR | 0.71 ± 0.028
PLSLIRFSAFQS | 0.486 ± 0.036
KLNLKVRKRERP | 0.66971 ± 0.00065
RCPDSARRWRVP | 0.7111 ± 0.0045
IQAGHLYPESLV | 0.708 ± 0.056
DFVGVVGFLVAG | 0.65 ± 0.032
NHRQPNSTKNRT | 0.547 ± 0.044
HPSFPPHRSPAS | 0.78 ± 0.023
TSGPVSCLCECL | 0.598 ± 0.029
PPPWPLPPGRLP | 0.703 ± 0.059
LNLISGVRFSLY | 0.675 ± 0.043
EKIRGFPGEIGE | 0.694 ± 0.022
PPPPPPAFPPST | 0.716 ± 0.027
PPSPSSLLFLLS | 0.7043 ± 0.0028
LYRILQAPRSSP | 0.703 ± 0.079
TINSHNYKTKTP | 0.664 ± 0.021
ESVVKNDVTYVQ | 0.691 ± 0.041
YSEKFKDRFKED | 0.67 ± 0.015

Sequence | protein stability index
GPSKTGRPLSGT | 0.713 ± 0.026
GGGGGGVRVARW | 0.687 ± 0.07
PPRSLPPPPFPF | 0.749 ± 0.01
GDSKTKDEMYKI | 0.6867 ± 0.0045
RCVRLSISILRP | 0.586 ± 0.038
GLRAAGCRAVGG | 0.672 ± 0.025
SSSPPPPPPSPS | 0.75 ± 0.12
DRGWPHTYNTIL | 0.639 ± 0.1
FRFSSTGRSFVS | 0.6917 ± 0.0029
HYLHRDSLLRWL | 0.6182 ± 0.0033
SCVSCACPVYWR | 0.662 ± 0.065
RYHQNTKKTSDI | 0.7119 ± 0.0016
ESSQLELRGGGR | 0.725 ± 0.0047
LVWGQPWKMPVV | 0.699 ± 0.012
SLPSSVAFLFPR | 0.802 ± 0.17
PPSPPPGTCPPD | 0.617 ± 0.064
VSFWSVFSWLSG | 0.665 ± 0.014
YSGSPPFPLSRL | 0.801 ± 0.027
PRPPYTPSPPHQ | 0.774 ± 0.016
GGGGGGGGRARE | 0.707 ± 0.09
VLGRLRVGRDRV | 0.7521 ± 0.0019
FRLNSYQNGSRV | 0.682 ± 0.043
SPPVPLPYLASP | 0.663 ± 0.061
LPFPPSPPLPSP | 0.57 ± 0.0099
LPPPPRPLPPSP | 0.696 ± 0.04
RGLVIWRVGGMK | 0.66337 ± 0.00065

Sequence | protein stability index
GDRTIALFFFTI | 0.671 ± 0.024
VSSVTFSLSFAL | 0.813 ± 0.082
FAHSPPPHLSVR | 0.624 ± 0.014
GSAFIRFRSSFG | 0.638 ± 0.022
SKKSKTQSNKNQ | 0.683 ± 0.02
VVVRAGAIFAIP | 0.62 ± 0.045
VVALLGPSGGWW | 0.742 ± 0.018
AKYNISTMTGHT | 0.695 ± 0.024
PPPHRPWSPVPP | 0.7158 ± 0.0034
GLVLVGGGGGAV | 0.577 ± 0.051
SLSGPDIRLKPF | 0.673 ± 0.046
VLIFSSFRSLVF | 0.562 ± 0.081
SFFCSKCPLLCP | 0.533 ± 0.016
KKQEKKKNKNDR | 0.646 ± 0.028
TRCRLRETISRR | 0.651 ± 0.067
PPHQPRTPNSPP | 0.68 ± 0.034
RTFTLCSPSPCA | 0.645 ± 0.059
KETTEKTEIRII | 0.7 ± 0.012
SVRGMFPSAGVS | 0.6934 ± 0.00093
SPGPSPPSPIGP | 0.61967 ± 0.00044
RCLRYFVWRLGW | 0.709 ± 0.12
FALWAGGTWFRT | 0.656 ± 0.013
TNKKQIEPSKIR | 0.763 ± 0.086
SCPSRLFLSFRG | 0.683 ± 0.034
LPPRAPPTCFPL | 0.658 ± 0.12
NRQNYAEDLKSC | 0.683 ± 0.02

Sequence | protein stability index
KGGLLPWGPWNA | 0.743 ± 0.064
NITIEGVELERV | 0.715 ± 0.029
RRNPTCPSGTQK | 0.7 ± 0.021
HATPPAPHSVSS | 0.774 ± 0.036
PRPPRWSSPWPV | 0.719 ± 0.058
FGAHVGWHEASP | 0.705 ± 0.018
DQLETTSAPLPG | 0.711 ± 0.044
LIIRTWEQILSP | 0.692 ± 0.058
PGNAEQGIAVHL | 0.626 ± 0.055
SSALSLVSSFLP | 0.705 ± 0.05
PPNPPPGPTVPF | 0.768 ± 0.084
TFSFSRPPLPPA | 0.6853 ± 0.0066
ILLSVAMNLRKH | 0.571 ± 0.037
PPTPKHTPHDTT | 0.694 ± 0.031
VCEGFRTWALGG | 0.722 ± 0.03
VSVSERVGNMLP | 0.679 ± 0.035
SDVLSFYGGVEC | 0.742 ± 0.026
VCSGSGIGNLFE | 0.7912 ± 0.0019
ILSGIGNGSGSE | 0.72 ± 0.06
RPPLIPAALLFL | 0.589 ± 0.048
